Measurements as given in patent publication US7070973B2, “Butyrylcholinesterase variants and methods of use” (priority 2000, dated 2006).

B1: Q119Y (protein, UniProt P06276 29-602, looked up, variant Q119Y)
Cholinesterase: EDDIIIATKNGKVRGMNLTVFGGTVTAFLGIPYAQPPLGRLRFKKPQSLTKWSDIWNATKYANSCCQNIDQSFPGFHGSEMWNPNTDLSEDCLYLNVWIPAPKPKNATVLIWIYGGGFYTGTSSLHVYDGKFLARVERVIVVSMNYRVGALGFLALPGNPEAPGNMGLFDQQLALQWVQKNIAAFGGNPKSVTLFGESAGAASVSLHLLSPGSHSLFTRAILQSGSFNAPWAVTSLYEARNRTLNLAKLTGCSRENETEIIKCLRNKDPQEILLNEAFVVPYGTPLSVNFGPTVDGDFLTDMPDILLELGQFKKTQILVGVNKDEGTAFLVYGAPGFSKDNNSIITRKEFQEGLKIFFPGVSEFGKESILFHYTDWVDDQRPENYREALGDVVGDYNFICPALEFTKKFSEWGNNAFFYYFEHRSSKLPWPEWMGVMHGYEIEFVFGLPLERRDNYTKAEEILSRSIVKRWANFAKYGNPNETQNNSTSWPVFKSTEQKYLTLNTESTRIMTKLRAQQCRFWTSFFPKVLEMTGNIDEAEWEWKAGFHRWNNYMMDWKNQFNDYTSKKESCVGL
B2: T120F (protein, UniProt P06276 29-602, looked up, variant T120F)
Cholinesterase: EDDIIIATKNGKVRGMNLTVFGGTVTAFLGIPYAQPPLGRLRFKKPQSLTKWSDIWNATKYANSCCQNIDQSFPGFHGSEMWNPNTDLSEDCLYLNVWIPAPKPKNATVLIWIYGGGFQFGTSSLHVYDGKFLARVERVIVVSMNYRVGALGFLALPGNPEAPGNMGLFDQQLALQWVQKNIAAFGGNPKSVTLFGESAGAASVSLHLLSPGSHSLFTRAILQSGSFNAPWAVTSLYEARNRTLNLAKLTGCSRENETEIIKCLRNKDPQEILLNEAFVVPYGTPLSVNFGPTVDGDFLTDMPDILLELGQFKKTQILVGVNKDEGTAFLVYGAPGFSKDNNSIITRKEFQEGLKIFFPGVSEFGKESILFHYTDWVDDQRPENYREALGDVVGDYNFICPALEFTKKFSEWGNNAFFYYFEHRSSKLPWPEWMGVMHGYEIEFVFGLPLERRDNYTKAEEILSRSIVKRWANFAKYGNPNETQNNSTSWPVFKSTEQKYLTLNTESTRIMTKLRAQQCRFWTSFFPKVLEMTGNIDEAEWEWKAGFHRWNNYMMDWKNQFNDYTSKKESCVGL
B3: V288F (protein, UniProt P06276 29-602, looked up, variant V288F)
Cholinesterase: EDDIIIATKNGKVRGMNLTVFGGTVTAFLGIPYAQPPLGRLRFKKPQSLTKWSDIWNATKYANSCCQNIDQSFPGFHGSEMWNPNTDLSEDCLYLNVWIPAPKPKNATVLIWIYGGGFQTGTSSLHVYDGKFLARVERVIVVSMNYRVGALGFLALPGNPEAPGNMGLFDQQLALQWVQKNIAAFGGNPKSVTLFGESAGAASVSLHLLSPGSHSLFTRAILQSGSFNAPWAVTSLYEARNRTLNLAKLTGCSRENETEIIKCLRNKDPQEILLNEAFVVPYGTPLSFNFGPTVDGDFLTDMPDILLELGQFKKTQILVGVNKDEGTAFLVYGAPGFSKDNNSIITRKEFQEGLKIFFPGVSEFGKESILFHYTDWVDDQRPENYREALGDVVGDYNFICPALEFTKKFSEWGNNAFFYYFEHRSSKLPWPEWMGVMHGYEIEFVFGLPLERRDNYTKAEEILSRSIVKRWANFAKYGNPNETQNNSTSWPVFKSTEQKYLTLNTESTRIMTKLRAQQCRFWTSFFPKVLEMTGNIDEAEWEWKAGFHRWNNYMMDWKNQFNDYTSKKESCVGL
B4: A328F (protein, UniProt P06276 29-602, looked up, variant A328F)
Cholinesterase: EDDIIIATKNGKVRGMNLTVFGGTVTAFLGIPYAQPPLGRLRFKKPQSLTKWSDIWNATKYANSCCQNIDQSFPGFHGSEMWNPNTDLSEDCLYLNVWIPAPKPKNATVLIWIYGGGFQTGTSSLHVYDGKFLARVERVIVVSMNYRVGALGFLALPGNPEAPGNMGLFDQQLALQWVQKNIAAFGGNPKSVTLFGESAGAASVSLHLLSPGSHSLFTRAILQSGSFNAPWAVTSLYEARNRTLNLAKLTGCSRENETEIIKCLRNKDPQEILLNEAFVVPYGTPLSVNFGPTVDGDFLTDMPDILLELGQFKKTQILVGVNKDEGTFFLVYGAPGFSKDNNSIITRKEFQEGLKIFFPGVSEFGKESILFHYTDWVDDQRPENYREALGDVVGDYNFICPALEFTKKFSEWGNNAFFYYFEHRSSKLPWPEWMGVMHGYEIEFVFGLPLERRDNYTKAEEILSRSIVKRWANFAKYGNPNETQNNSTSWPVFKSTEQKYLTLNTESTRIMTKLRAQQCRFWTSFFPKVLEMTGNIDEAEWEWKAGFHRWNNYMMDWKNQFNDYTSKKESCVGL
B5: Y332A (protein, UniProt P06276 29-602, looked up, variant Y332A)
Cholinesterase: EDDIIIATKNGKVRGMNLTVFGGTVTAFLGIPYAQPPLGRLRFKKPQSLTKWSDIWNATKYANSCCQNIDQSFPGFHGSEMWNPNTDLSEDCLYLNVWIPAPKPKNATVLIWIYGGGFQTGTSSLHVYDGKFLARVERVIVVSMNYRVGALGFLALPGNPEAPGNMGLFDQQLALQWVQKNIAAFGGNPKSVTLFGESAGAASVSLHLLSPGSHSLFTRAILQSGSFNAPWAVTSLYEARNRTLNLAKLTGCSRENETEIIKCLRNKDPQEILLNEAFVVPYGTPLSVNFGPTVDGDFLTDMPDILLELGQFKKTQILVGVNKDEGTAFLVAGAPGFSKDNNSIITRKEFQEGLKIFFPGVSEFGKESILFHYTDWVDDQRPENYREALGDVVGDYNFICPALEFTKKFSEWGNNAFFYYFEHRSSKLPWPEWMGVMHGYEIEFVFGLPLERRDNYTKAEEILSRSIVKRWANFAKYGNPNETQNNSTSWPVFKSTEQKYLTLNTESTRIMTKLRAQQCRFWTSFFPKVLEMTGNIDEAEWEWKAGFHRWNNYMMDWKNQFNDYTSKKESCVGL
B6: G116W (protein, UniProt P06276 29-602, looked up, variant G116W)
Cholinesterase: EDDIIIATKNGKVRGMNLTVFGGTVTAFLGIPYAQPPLGRLRFKKPQSLTKWSDIWNATKYANSCCQNIDQSFPGFHGSEMWNPNTDLSEDCLYLNVWIPAPKPKNATVLIWIYGWGFQTGTSSLHVYDGKFLARVERVIVVSMNYRVGALGFLALPGNPEAPGNMGLFDQQLALQWVQKNIAAFGGNPKSVTLFGESAGAASVSLHLLSPGSHSLFTRAILQSGSFNAPWAVTSLYEARNRTLNLAKLTGCSRENETEIIKCLRNKDPQEILLNEAFVVPYGTPLSVNFGPTVDGDFLTDMPDILLELGQFKKTQILVGVNKDEGTAFLVYGAPGFSKDNNSIITRKEFQEGLKIFFPGVSEFGKESILFHYTDWVDDQRPENYREALGDVVGDYNFICPALEFTKKFSEWGNNAFFYYFEHRSSKLPWPEWMGVMHGYEIEFVFGLPLERRDNYTKAEEILSRSIVKRWANFAKYGNPNETQNNSTSWPVFKSTEQKYLTLNTESTRIMTKLRAQQCRFWTSFFPKVLEMTGNIDEAEWEWKAGFHRWNNYMMDWKNQFNDYTSKKESCVGL
B7: A328I (protein, UniProt P06276 29-602, looked up, variant A328I)
Cholinesterase: EDDIIIATKNGKVRGMNLTVFGGTVTAFLGIPYAQPPLGRLRFKKPQSLTKWSDIWNATKYANSCCQNIDQSFPGFHGSEMWNPNTDLSEDCLYLNVWIPAPKPKNATVLIWIYGGGFQTGTSSLHVYDGKFLARVERVIVVSMNYRVGALGFLALPGNPEAPGNMGLFDQQLALQWVQKNIAAFGGNPKSVTLFGESAGAASVSLHLLSPGSHSLFTRAILQSGSFNAPWAVTSLYEARNRTLNLAKLTGCSRENETEIIKCLRNKDPQEILLNEAFVVPYGTPLSVNFGPTVDGDFLTDMPDILLELGQFKKTQILVGVNKDEGTIFLVYGAPGFSKDNNSIITRKEFQEGLKIFFPGVSEFGKESILFHYTDWVDDQRPENYREALGDVVGDYNFICPALEFTKKFSEWGNNAFFYYFEHRSSKLPWPEWMGVMHGYEIEFVFGLPLERRDNYTKAEEILSRSIVKRWANFAKYGNPNETQNNSTSWPVFKSTEQKYLTLNTESTRIMTKLRAQQCRFWTSFFPKVLEMTGNIDEAEWEWKAGFHRWNNYMMDWKNQFNDYTSKKESCVGL
B8: Q119Y/V288F/A328Y (protein, UniProt P06276 29-602, looked up, variant Q119Y V288F A328Y)
Cholinesterase: EDDIIIATKNGKVRGMNLTVFGGTVTAFLGIPYAQPPLGRLRFKKPQSLTKWSDIWNATKYANSCCQNIDQSFPGFHGSEMWNPNTDLSEDCLYLNVWIPAPKPKNATVLIWIYGGGFYTGTSSLHVYDGKFLARVERVIVVSMNYRVGALGFLALPGNPEAPGNMGLFDQQLALQWVQKNIAAFGGNPKSVTLFGESAGAASVSLHLLSPGSHSLFTRAILQSGSFNAPWAVTSLYEARNRTLNLAKLTGCSRENETEIIKCLRNKDPQEILLNEAFVVPYGTPLSFNFGPTVDGDFLTDMPDILLELGQFKKTQILVGVNKDEGTYFLVYGAPGFSKDNNSIITRKEFQEGLKIFFPGVSEFGKESILFHYTDWVDDQRPENYREALGDVVGDYNFICPALEFTKKFSEWGNNAFFYYFEHRSSKLPWPEWMGVMHGYEIEFVFGLPLERRDNYTKAEEILSRSIVKRWANFAKYGNPNETQNNSTSWPVFKSTEQKYLTLNTESTRIMTKLRAQQCRFWTSFFPKVLEMTGNIDEAEWEWKAGFHRWNNYMMDWKNQFNDYTSKKESCVGL
B9: A328W (protein)
chain: MDSKVTIICIRFLFWFLLLCMLIGKSHTEDDIIIATKNGKVRGMNLTVFGGTVTAFLGIPYAQPPLGRLRFKKPQSLTKWSDIWNATKYANSCCQNIDQSFPGFHGSEMWNPNTDLSEDCLYLNVWIPAPKPKNATVLIWIYGGGFQTGTSSLHVYDGKFLARVERVIVVSMNYRVGALGFLALPGNPEAPGNMGLFDQQLALQWVQKNIAAFGGNPKSVTLFGESAGAASVSLHLLSPGSHSLFTRAILQSGSFNAPWAVTSLYEARNRTLNLAKLTGCSRENETEIIKCLRNKDPQEILLNEAFVVPYGTPLSVNFGPTVDGDFLTDMPDILLELGQFKKTQILVGVNKDEGTWFLVYGAPGFSKDNNSIITRKEFQEGLKIFFPGVSEFGKESILFHYTDWVDDQRPENYREALGDVVGDYNFICPALEFTKKFSEWGNNAFFYYFEHRSSKLPWPEWMGVMHGYEIEFVFGLPLERRDNYTKAEEILSRSIVKRWANFAKYGNPNETQNNSTSWPVFKSTEQKYLTLNTESTRIMTKLRAQQCRFWTSFFPKVLEMTGNIDEAEWEWKAGFHRWNNYMMDWKNQFNDYTSKKESCVGL
modifications: Human Butyrylcholinesterase variant

Assay: Spectrophotometric (240 nm) cocaine binding and hydrolysis assay with purified butyrylcholinesterase variants
Assay type: biochemical
Details: for Km / kcat (hydrolysis rate): (−)-cocaine; for Km: 0.1M potassium phosphate pH 7.0 at 30° C.; for kcat (hydrolysis rate): active sites titrated with chlorpyrifos oxon; for Cocaine Binding or Cocaine Hydrolysis (result in words): Table 4
Description: […]. Pharmacol. 41:1249–1254 (1991). Km values were determined in 0.1M potassium phosphate pH 7.0 at 30° C. for (−)-cocaine. Vmax values and Km values were calculated using Sigma Plot for Macintosh (Jandel Scientific, San Rafael, Calif.).
Once Vmax values and Km values were calculated, the number of active sites in each butyrylcholinesterase preparation was determined. The titration of active sites was performed with chlorpyrifos oxon (MET-674B, Chem Service, West Chester, Pa.), an inhibitor of butyrylcholinesterase. One molecule of chlorpyrifos oxon binds and inhibits one molecule of butyrylcholinesterase, which allows for calculation of the number of active sites. Based on the number of active sites, the kcat value for each variant was calculated (Table 3). […].

| Molecule | Km [µM] | kcat (hydrolysis rate) [s⁻¹] | Cocaine Binding or Cocaine Hydrolysis (result in words) |
| --- | --- | --- | --- |
| B1 | 56 | 0.0333 | not a cocaine hydrolase |
| B2 | 97 | – | not a cocaine hydrolase |
| B3 | 17 | 0.0167 | Not a cocaine hydrolase |
| B4 | 24 | 0.0967 | Not a cocaine hydrolase |
| B5 | 240 | – | – |
| B6 | – | – | no activity |
| B7 | 11 | 0.0083 | Not a cocaine hydrolase |
| B8 | 33 | 0.0383 | Not a cocaine hydrolase |
| B9 | 10 | 0.62 | – |
